This passage reports koff and Kd results from publication PMC10522485.

The target in test [1] is CLIP102-120 labeled with FITC (human). Kind of test: fluorescence polarisation; dissociation of 100 nM DR/CLIP-FITC complexes with 20 µM unlabeled CLIP102-120 as competitor, no DM (intrinsic off-rate), 37 °C, phosphate/citrate buffer pH 5.2.
Test [2] shares this target. In words: fluorescence polarisation; equilibrium; empty DR from bacterial expression varied from 4 µM to 7.8125 nM (2-fold dilutions), CLIP-FITC fixed at 100 nM. For orientation: Fluorescence polarisation rises when a labelled molecule tumbles more slowly, as on binding a larger partner.

For orientation: koff means the rate constant with which the complex falls apart. A low value points to slow dissociation. The substance “HLA-DR DRA*01:01/DRB1*08:02, insect cell-expressed (complex)” showed a dissociation rate constant (koff) in test [1] of 1.01e-05 s⁻¹. Still for that read-out and setting: the value for “HLA-DR DRA*01:01/DRB1*01:02, insect cell-expressed (complex)” was 2.45e-05 s⁻¹. In general, Kd refers to the equilibrium constant for the complex coming apart. High values mean weaker binding, low ones tighter binding. The substance “empty HLA-DR DRA*01:01(N62A)/DRB1*01:01 from bacterial expression (complex)” yielded an equilibrium dissociation constant (Kd) in test [2] of 1110 nM. Turning to “HLA-DR DRA*01:01/DRB1*14:01, insect cell-expressed (complex)”, the off-rate constant (koff) in test [1] was 6.27e-05 s⁻¹.

Substance “empty HLA-DR DRA*01:01/DRB1*01:02 from bacterial expression (complex)” came in with a Kd in test [2] of 325 nM. With “HLA-DR DRA*01:01/DRB1*04:01, insect cell-expressed (complex)”, the koff in test [1] stood at 4.23e-05 s⁻¹. The same measure, in the same setting: in the case of “HLA-DR DRA*01:01/DRB1*03:01, insect cell-expressed (complex)” it was 0.000317 s⁻¹. The same measure, in the same setting: the value for “HLA-DR DRA*01:01/DRB1*04:04, insect cell-expressed (complex)” was 3.22e-05 s⁻¹. Take “empty HLA-DR DRA*01:01/DRB1*01:01(R71A) from bacterial expression (complex)”: in test [2], the dissociation constant Kd was 1360 nM. In other words, the single-digit micromolar range. On the same count and under the same terms, in the case of “empty HLA-DR DRA*01:01(N62A)/DRB1*01:02 from bacterial expression (complex)” it was 512 nM. In test [1], “HLA-DR DRA*01:01/DRB1*08:01, insect cell-expressed (complex)” displayed a dissociation rate constant (koff) of 6.88e-05 s⁻¹. Still for that read-out and setting: in the case of “HLA-DR DRA*01:01/DRB1*15:01, insect cell-expressed (complex)” it was 0.000223 s⁻¹; in that of “HLA-DR DRA*01:01/DRB1*07:01, insect cell-expressed (complex)”, 3.25e-05 s⁻¹; in that of “HLA-DR DRA*01:01/DRB1*13:01, insect cell-expressed (complex)”, 7.9e-05 s⁻¹. On the same count and under the same terms, the value for “HLA-DR DRA*01:01/DRB1*13:02, insect cell-expressed (complex)” was 0.000148 s⁻¹.

For the substance “empty HLA-DR DRA*01:01/DRB1*01:02(R71A) from bacterial expression (complex)”, in test [2], the Kd was found to be 508 nM. “empty HLA-DR DRA*01:01/DRB1*01:01 from bacterial expression (complex)” displayed a dissociation constant Kd in test [2] of 414 nM.

In test [1], “HLA-DR DRA*01:01/DRB1*01:01, insect cell-expressed (complex)” displayed a koff of 1.06e-05 s⁻¹.
